This note sets out measurements from the supplement of paper PMC6379048.

Common to all, as to test: Kd (EC50 corrected by depletion factor)
In one data set the target is T1, ERI3 (UniProt O43414).
T1 sequence: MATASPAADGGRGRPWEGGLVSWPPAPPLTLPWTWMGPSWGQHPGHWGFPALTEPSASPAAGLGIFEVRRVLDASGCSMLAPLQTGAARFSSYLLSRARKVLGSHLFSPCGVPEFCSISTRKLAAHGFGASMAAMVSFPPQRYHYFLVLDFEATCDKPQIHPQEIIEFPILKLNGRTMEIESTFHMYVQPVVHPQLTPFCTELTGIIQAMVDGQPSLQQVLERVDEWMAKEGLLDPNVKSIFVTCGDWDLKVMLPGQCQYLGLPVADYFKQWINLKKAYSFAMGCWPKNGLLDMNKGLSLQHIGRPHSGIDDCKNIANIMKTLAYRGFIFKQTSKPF
An outline of the steps:
(§1)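 To obtain EC50, data were fitted with a four-parameter log-logistic model; Kd was then EC50 multiplied by a protein-dependent depletion factor. Beforehand, free RNA oligos (0 nM to 30 μM) were pre-incubated with HEK293-FT lysate (2.5 mg protein/well) for 1 h at 4°C. The lysate then spent 30 min at 4°C with the same 5′-amino-C6 oligos coupled to NHS-Sepharose beads, and bound proteins were quantified by label-free LC-MS/MS, normalised to the control.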

A further data set concerns the target T2, SYNCRIP (UniProt O60506).
T2 sequence: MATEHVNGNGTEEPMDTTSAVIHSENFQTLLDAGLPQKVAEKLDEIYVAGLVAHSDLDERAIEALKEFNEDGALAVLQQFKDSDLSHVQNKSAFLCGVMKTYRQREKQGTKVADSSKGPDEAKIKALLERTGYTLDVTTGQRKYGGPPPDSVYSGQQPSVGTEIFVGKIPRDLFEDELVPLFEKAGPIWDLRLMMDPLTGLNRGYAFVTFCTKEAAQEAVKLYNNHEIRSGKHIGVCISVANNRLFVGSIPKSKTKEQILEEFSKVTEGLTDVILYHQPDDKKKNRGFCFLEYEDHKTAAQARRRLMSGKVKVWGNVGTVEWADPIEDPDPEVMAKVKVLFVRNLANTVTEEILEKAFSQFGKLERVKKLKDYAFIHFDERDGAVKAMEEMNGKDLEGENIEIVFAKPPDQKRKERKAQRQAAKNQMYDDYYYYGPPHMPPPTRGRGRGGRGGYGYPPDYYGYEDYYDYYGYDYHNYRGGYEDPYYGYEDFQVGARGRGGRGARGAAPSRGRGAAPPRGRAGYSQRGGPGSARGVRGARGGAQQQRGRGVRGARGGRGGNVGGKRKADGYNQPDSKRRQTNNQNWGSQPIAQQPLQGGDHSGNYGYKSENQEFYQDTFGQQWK
A digest of the protocol: as §1

The target in another data set is T3, DDX21 (UniProt Q9NR30).
T3 sequence: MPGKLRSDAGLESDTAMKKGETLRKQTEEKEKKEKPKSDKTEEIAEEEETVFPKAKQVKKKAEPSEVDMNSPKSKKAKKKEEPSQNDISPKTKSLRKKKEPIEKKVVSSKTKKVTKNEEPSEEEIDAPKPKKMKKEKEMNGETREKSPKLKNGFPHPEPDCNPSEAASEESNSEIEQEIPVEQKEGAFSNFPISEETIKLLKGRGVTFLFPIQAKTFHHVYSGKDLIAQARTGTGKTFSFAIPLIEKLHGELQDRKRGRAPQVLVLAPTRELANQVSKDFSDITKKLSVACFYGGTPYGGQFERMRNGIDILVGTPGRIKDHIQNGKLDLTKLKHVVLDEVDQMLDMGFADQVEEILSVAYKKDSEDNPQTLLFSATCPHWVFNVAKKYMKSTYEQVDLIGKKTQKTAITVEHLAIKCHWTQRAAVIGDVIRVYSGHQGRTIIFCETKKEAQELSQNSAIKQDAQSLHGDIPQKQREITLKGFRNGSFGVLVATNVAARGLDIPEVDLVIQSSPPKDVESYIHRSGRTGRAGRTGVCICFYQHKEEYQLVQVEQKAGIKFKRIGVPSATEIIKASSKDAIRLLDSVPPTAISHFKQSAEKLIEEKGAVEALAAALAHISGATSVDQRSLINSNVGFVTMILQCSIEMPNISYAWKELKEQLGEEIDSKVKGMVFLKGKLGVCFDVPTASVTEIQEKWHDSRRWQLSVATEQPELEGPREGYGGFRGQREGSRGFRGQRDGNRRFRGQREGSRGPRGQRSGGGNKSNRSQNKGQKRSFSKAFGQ
A digest of the protocol: as §1

The next data set has as its target IGF2BP1 (UniProt Q9NZI8). A digest of the protocol:
as §1

The target of another data set is T4, CDKN2AIP (UniProt Q9NXV6).
T4 sequence: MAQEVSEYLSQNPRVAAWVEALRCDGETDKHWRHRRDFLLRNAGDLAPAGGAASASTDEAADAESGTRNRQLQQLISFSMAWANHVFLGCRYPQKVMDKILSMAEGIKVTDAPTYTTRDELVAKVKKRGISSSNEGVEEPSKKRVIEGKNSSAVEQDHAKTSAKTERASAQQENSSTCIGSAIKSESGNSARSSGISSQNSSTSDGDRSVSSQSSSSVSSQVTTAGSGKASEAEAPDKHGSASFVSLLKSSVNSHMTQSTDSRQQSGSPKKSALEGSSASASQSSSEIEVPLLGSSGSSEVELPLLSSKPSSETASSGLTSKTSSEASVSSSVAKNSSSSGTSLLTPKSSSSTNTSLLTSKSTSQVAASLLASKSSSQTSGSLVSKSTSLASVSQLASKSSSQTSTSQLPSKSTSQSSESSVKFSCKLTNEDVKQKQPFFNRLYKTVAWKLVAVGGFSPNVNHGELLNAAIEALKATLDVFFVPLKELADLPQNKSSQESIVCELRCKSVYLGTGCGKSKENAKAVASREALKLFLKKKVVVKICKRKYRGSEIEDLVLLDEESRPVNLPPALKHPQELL
A digest of the protocol: as §1

The next data set has as its target T5, RBM38 (UniProt Q9H0Z9).
T5 sequence: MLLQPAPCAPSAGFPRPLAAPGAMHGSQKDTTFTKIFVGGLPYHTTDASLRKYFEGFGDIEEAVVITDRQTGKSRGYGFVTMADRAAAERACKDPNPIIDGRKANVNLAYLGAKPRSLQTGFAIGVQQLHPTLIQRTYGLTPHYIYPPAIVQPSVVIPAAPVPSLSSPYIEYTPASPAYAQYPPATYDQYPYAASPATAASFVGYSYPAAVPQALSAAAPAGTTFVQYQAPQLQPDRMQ
An outline of the steps: as §1

Sequence of IGF2BP1 (Q9NZI8 whole entry): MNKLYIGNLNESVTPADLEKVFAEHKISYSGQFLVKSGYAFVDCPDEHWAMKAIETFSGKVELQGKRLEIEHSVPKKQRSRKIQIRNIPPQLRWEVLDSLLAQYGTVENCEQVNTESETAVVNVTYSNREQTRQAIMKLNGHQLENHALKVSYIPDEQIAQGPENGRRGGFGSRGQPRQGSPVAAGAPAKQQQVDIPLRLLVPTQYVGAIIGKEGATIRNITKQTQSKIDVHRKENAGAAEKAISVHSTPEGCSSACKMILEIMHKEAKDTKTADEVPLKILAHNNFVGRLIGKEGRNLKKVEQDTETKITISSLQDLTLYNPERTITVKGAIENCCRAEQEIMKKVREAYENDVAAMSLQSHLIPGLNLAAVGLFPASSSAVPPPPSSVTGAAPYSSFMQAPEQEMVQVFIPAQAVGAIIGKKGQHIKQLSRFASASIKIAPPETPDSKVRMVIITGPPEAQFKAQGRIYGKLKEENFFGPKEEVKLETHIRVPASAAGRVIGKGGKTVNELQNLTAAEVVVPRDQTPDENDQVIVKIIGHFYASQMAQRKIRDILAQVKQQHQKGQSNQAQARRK

For AAUAAA, the dissociation constant (Kd) was determined as 0.173 µM in the data set with ERI3 and 0.252 µM in the data set with SYNCRIP.

Consider CUGUCCU, for which the Kd with DDX21 turned out to be 0.0443 µM; with IGF2BP1, 1.24 µM.

On to UAUUUAU, for which the Kd in the data set with CDKN2AIP came out at 0.368 µM; with RBM38, 1.27 µM.

A word on the Kd: it is the equilibrium constant for the complex coming apart. A lower Kd goes with a tighter complex.
